The target of experiment [1] is human heat shock protein 70 (hHsp70) (human) (UniProt P0DMV8). The experiment can be described thus: BLI; Octet Red; biotinylated hHsp70 immobilised on streptavidin tips, dipped into E. coli GAPDH (39.5, 59.3, 88.9, 133.3 and 200 nM) in PBS; association 600 s, dissociation 900 s; 1:1 model.
A further experiment addresses human GAPDH (human) (UniProt P04406). The experiment can be described thus: BLI; Octet Red; biotinylated human GAPDH immobilised on streptavidin tips, dipped into hHsp70 (2.05, 5.12, 12.8, 32 and 80 nM) in PBS; association 600 s, dissociation 900 s; 1:1 model. For orientation: Biolayer interferometry detects binding as a change in optical thickness at a sensor tip.
UniProt P04406, sequence (P04406 whole entry): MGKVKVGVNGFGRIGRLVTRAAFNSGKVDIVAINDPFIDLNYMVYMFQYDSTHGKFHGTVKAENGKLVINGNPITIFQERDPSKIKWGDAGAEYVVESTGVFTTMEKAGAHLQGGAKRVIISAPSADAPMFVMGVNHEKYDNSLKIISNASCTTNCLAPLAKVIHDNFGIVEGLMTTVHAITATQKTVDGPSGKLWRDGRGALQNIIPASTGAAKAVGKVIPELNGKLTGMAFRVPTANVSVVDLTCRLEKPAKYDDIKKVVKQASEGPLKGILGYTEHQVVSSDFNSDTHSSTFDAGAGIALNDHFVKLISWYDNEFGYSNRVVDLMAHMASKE

Turning to “E. coli glyceraldehyde 3-phosphate deshydrogenase (GAPDH), recombinant (from UniProt P0A9B2 1-331) (enzyme)”, in experiment [1], the Kd came out at 8.2 nM, the koff amounted to 0.00024 s⁻¹ and the kon came to 29300 M⁻¹ s⁻¹.

For the substance “human heat shock protein 70 (hHsp70) (from UniProt P0DMV8 1-641) (natural protein)”, in the experiment with human GAPDH (human), the Kd was 1.3 nM, the koff worked out at 9.3e-05 s⁻¹ and the association rate constant (kon) came out at 72400 M⁻¹ s⁻¹.

What is called Kd is a measure of binding affinity in units of concentration. Lower therefore signals a tighter complex. The term koff denotes the first-order rate constant of dissociation. A higher koff goes with a short-lived complex. The kon is a measure of how fast the partners come together. Higher therefore signals fast association.

The values above are taken from PMC5017159.
